Measured values reported in patent publication US20200399369A1 (Sanofi, published 2020).

Tests used:
[1] = target: T1, human CD38 on tumor cell lines NCI-H929 (CD38+/CD28+) and OCI-LY19 (CD38+/CD28-) (human, UniProt P28907 1-300); test: cell-based or functional assay
[2] = target: T1, human CD38 on tumor cell lines NCI-H929 …; test: cell-based or functional assay; remark: listed apart in the source
Human CD28 = target: T2, Human CD28 (human, UniProt P10747 19-152, limits assumed); test: ELISA, antigen-coated plate
T2 construct: also called hCD28
Experimental: (§1) Binding affinities to each target antigen by the CD38/CD28×CD3 T cell engagers were measured by ELISA. Briefly, each antigen was used to coat the 96-well Immuno Plate (Thermo Fisher Scientific) overnight at 4° C. using 200 ng/well in PBS (pH7.4) of each antigen. The coated plate was blocked using 5% skim milk+2% BSA in PBS for one hour at RT, followed by washing with PBS+0.25% Tween 20 three times (Aqua Max 400, Molecular Devices). Serial dilution of antibodies (trispecific and control Abs) were prepared and added onto the ELISA plates (100 μl/well in duplicate), incubated at room temperature (RT) for one hour, followed by washing 5 times with PBS+0.25% Tween 20. […] The reaction was terminated by adding 50 μl 1M H₂SO₄, and OD450 was measured using SpectraMax M5 (Molecular Devices) and analyzed using SoftMax Pro6.3 software (Molecular Devices). The final data was transferred to GraphPad Prism software (GraphPad Software, CA, USA), and plotted. EC50 was calculated using the same software.
(§2) The binding affinities of selected CD38/CD28sup×CD3mid_ENLQ DKTHT IgG4 FALA trispecific antibodies with alternative anti-CD38 binding domains for human CD3, human CD28, human CD38 and cynomolgus monkey CD38 were then determined by ELISA as described above.

human CD38 = target: T3, human CD38 (human, UniProt P28907 43-300, limits assumed); test: ELISA, antigen-coated plate
T3 construct: also called hCD38; huCD38
Experimental: as §1, §2

cynomolgus monkey CD38 = target: T4, cynomolgus monkey CD38 (cynomolgus monkey, UniProt Q5VAN0 44-301, limits assumed); test: ELISA, antigen-coated plate
T4 construct: also called Cyno CD38; cynoCD38
Experimental: as §1, §2

Human CD3 = target: T5, Human CD3 (human); test: ELISA, antigen-coated plate
T5 chain: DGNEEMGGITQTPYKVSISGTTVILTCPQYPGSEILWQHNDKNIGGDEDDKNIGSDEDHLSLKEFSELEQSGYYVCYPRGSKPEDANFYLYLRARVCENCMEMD
Experimental: as §1, §2

Human CD38-His = target: T6, Human CD38-His (human, UniProt P28907 43-300, limits assumed); test: SPR (BIACORE 3000), capture format, 1:1 Langmuir model
T6 construct: Bought antigen; also called human CD38 (SPR antigen); not shown: His tag

B1: CD38hhy1370/CD28sup x CD3mid_ENLQ DKTHT IgG4 FALA (other)
light 1: DIVMTQTPLSLSVTPGQPASISCKSSQSLVHENLQTYLSWYLQKPGQSPQSLIYKVSNRFSGVPDRFSGSGSGTDFTLKISRVEAEDVGVYYCGQGTQYPFTFGSGTKVEIKDKTHTDIQMTQSPSSLSASVGDRVTITCQASQNIYVWLNWYQQKPGKAPKLLIYKASNLHTGVPSRFSGSGSGTDFTLTISSLQPEDIATYYCQQGQTYPYTFGQGTKLEIKDKTHTRTVAAPSVFIFPPSDEQLKSGTASVVCLLNNFYPREAKVQWKVDNALQSGNSQESVTEQDSKDSTYSLSSTLTLSKADYEKHKVYACEVTHQGLSSPVTKSFNRGEC
heavy 1: QVQLVQSGAEVVKPGASVKVSCKASGYTFTSYYIHWVRQAPGQGLEWIGSIYPGNVNTNYAQKFQGRATLTVDTSISTAYMELSRLRSDDTAVYYCTRSHYGLDWNFDVWGKGTTVTVSSDKTHTQVQLVESGGGVVQPGRSLRLSCAASGFTFTKAWMHWVRQAPGKQLEWVAQIKDKSNSYATYYADSVKGRFTISRDDSKNTLYLQMNSLRAEDTAVYYCRGVYYALSPFDYWGQGTLVTVSSDKTHTASTKGPSVFPLAPCSRSTSESTAALGCLVKDYFPEPVTVSWNSGALTSGVHTFPAVLQSSGLYSLSSVVTVPSSSLGTKTYTCNVDHKPSNTKVDKRVESKYGPPCPPCPAPEAAGGPSVFLFPPKPKDTLMISRTPEVTCVVVDVSQEDPEVQFNWYVDGVEVHNAKTKPREEQFNSTYRVVSVLTVLHQDWLNGKEYKCKVSNKGLPSSIEKTISKAKGQPREPQVCTLPPSQEEMTKNQVSLSCAVKGFYPSDIAVEWESNGQPENNYKTTPPVLDSDGSFFLVSKLTVDKSRWQEGNVFSCSVMHEALHNHYTQKSLSLSLG
heavy 2: QVQLVESGGGVVQPGRSLRLSCAASGFTFSSYGMHWVRQAPGKGLEWVAVIWYDGSNKYYADSVKGRFTISGDNSKNTLYLQMNSLRAEDTAVYYCARMFRGAFDYWGQGTLVTVSSASTKGPSVFPLAPCSRSTSESTAALGCLVKDYFPEPVTVSWNSGALTSGVHTFPAVLQSSGLYSLSSVVTVPSSSLGTKTYTCNVDHKPSNTKVDKRVESKYGPPCPPCPAPEAAGGPSVFLFPPKPKDTLMISRTPEVTCVVVDVSQEDPEVQFNWYVDGVEVHNAKTKPREEQFNSTYRVVSVLTVLHQDWLNGKEYKCKVSNKGLPSSIEKTISKAKGQPREPQVYTLPPCQEEMTKNQVSLWCLVKGFYPSDIAVEWESNGQPENNYKTTPPVLDSDGSFFLYSKLTVDKSRWQEGNVFSCSVMHEALHNHYTQKSLSLSLG
light 2: AIQMTQSPSSLSASVGDRVTITCRASQGIRNDLGWYQQKPGKAPKLLIYAASSLQSGVPSRFSGSGSGTDFTLTISGLQPEDSATYYCLQDYIYYPTFGQGTKVEIKRTVAAPSVFIFPPSDEQLKSGTASVVCLLNNFYPREAKVQWKVDNALQSGNSQESVTEQDSKDSTYSLSSTLTLSKADYEKHKVYACEVTHQGLSSPVTKSFNRGEC
notes: Trispecific antibody; also called BP # 9
Q: What does the source list for B1?
A: EC50 of in vitro killing of NCI-H929 (CD38+/CD28+) cells, With Dara [1]: 0.255 nM; EC50 of in vitro killing of NCI-H929 (CD38+/CD28+) cells, With human IgG1 [1]: 0.0096 nM; EC50 of in vitro killing of OCI-LY19 (CD38+/CD28-) cells, With Dara [2]: 0.21 nM; EC50 of in vitro killing of OCI-LY19 (CD38+/CD28-) cells, With human IgG1 [2]: 0.0585 nM; EC50 (Human CD28): 1.26 nM; EC50 (human CD38): 0.587 nM; EC50 (cynomolgus monkey CD38): 0.553 nM; EC50 (Human CD3): 25 nM; Kd (Human CD38-His): 0.876 nM; koff (Human CD38-His): 0.000329 s⁻¹; kon (Human CD38-His): 376000 M⁻¹ s⁻¹
